Results on one molecule are retold here after PMC5636811, “High-fidelity DNA replication in Mycobacterium tuberculosis relies on a trinuclear zinc center”.

The target in the series is DnaE1 (replicative DNA polymerase);β-clamp (Mycobacterium …, UniProt P9WNT7;P9WNU1 1-1184;1-402, |). As to the kind of experiment: cryo-EM 2D class average. The following applies: protein: recombinant;recombinant; tags: His tag cleaved with HRV 3C protease;; copies: 1;2.
Chain of DnaE1 (replicative DNA polymerase);β-clamp (P9WNT7 whole entry, chain 1 of 2): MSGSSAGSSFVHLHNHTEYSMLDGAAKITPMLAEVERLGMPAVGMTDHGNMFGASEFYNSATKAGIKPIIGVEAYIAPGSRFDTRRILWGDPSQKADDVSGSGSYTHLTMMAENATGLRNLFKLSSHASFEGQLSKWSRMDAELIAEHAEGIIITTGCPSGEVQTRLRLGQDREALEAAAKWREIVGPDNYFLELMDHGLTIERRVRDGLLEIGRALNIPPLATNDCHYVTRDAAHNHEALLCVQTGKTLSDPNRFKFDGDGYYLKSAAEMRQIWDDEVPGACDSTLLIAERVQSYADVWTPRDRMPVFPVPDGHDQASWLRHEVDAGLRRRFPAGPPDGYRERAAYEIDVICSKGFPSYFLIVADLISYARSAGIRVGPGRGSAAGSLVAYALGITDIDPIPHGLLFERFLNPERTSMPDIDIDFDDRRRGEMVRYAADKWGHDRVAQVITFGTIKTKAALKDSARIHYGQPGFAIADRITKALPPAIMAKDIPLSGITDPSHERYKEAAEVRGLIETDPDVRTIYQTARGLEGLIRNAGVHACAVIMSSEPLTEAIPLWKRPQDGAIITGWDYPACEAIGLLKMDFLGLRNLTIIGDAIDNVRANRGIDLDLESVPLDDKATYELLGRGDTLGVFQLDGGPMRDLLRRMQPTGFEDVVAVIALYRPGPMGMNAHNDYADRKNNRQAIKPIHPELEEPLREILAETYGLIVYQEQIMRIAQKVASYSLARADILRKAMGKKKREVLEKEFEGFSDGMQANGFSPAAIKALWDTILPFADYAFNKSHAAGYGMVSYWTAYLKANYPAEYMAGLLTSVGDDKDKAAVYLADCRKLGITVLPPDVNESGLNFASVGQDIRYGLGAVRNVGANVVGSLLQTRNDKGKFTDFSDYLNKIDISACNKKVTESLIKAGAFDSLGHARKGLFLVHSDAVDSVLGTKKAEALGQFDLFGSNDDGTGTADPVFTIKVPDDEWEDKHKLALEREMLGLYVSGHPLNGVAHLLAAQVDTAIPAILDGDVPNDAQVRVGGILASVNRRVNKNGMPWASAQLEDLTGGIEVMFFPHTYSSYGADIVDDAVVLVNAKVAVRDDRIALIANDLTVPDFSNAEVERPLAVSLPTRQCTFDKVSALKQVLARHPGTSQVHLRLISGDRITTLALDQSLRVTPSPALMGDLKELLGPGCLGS
Chain of DnaE1 (replicative DNA polymerase);β-clamp (P9WNU1 whole entry, chain 2 of 2): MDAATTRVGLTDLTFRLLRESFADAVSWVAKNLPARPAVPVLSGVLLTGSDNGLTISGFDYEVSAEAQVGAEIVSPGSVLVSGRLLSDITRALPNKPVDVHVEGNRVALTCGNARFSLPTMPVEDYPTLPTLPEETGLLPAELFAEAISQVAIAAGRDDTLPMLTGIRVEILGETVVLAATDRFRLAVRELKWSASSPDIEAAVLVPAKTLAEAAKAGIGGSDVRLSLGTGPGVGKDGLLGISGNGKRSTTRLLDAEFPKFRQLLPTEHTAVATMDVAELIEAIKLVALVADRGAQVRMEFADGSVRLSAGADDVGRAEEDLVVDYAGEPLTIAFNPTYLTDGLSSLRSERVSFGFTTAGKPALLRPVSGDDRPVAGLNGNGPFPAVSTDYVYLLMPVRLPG

B1: mismatched primer-template cryo-EM substrate (dsDNA)
DNA 1: CCCCTCAGGAGTCCTTCGTCCTAGTACTACTCC
DNA 2: GGAGTAGTACTAGGACGAAGGACGT
modifications: phosphorothioate between last two nt of primer (GsT)
As for B1, the binding result was “binds”.
